# Test results from PMC10055539 (Research Square, 2023).
# Ends that are not written are not given here. * marks the point of attachment. Cbz = O=C(OCc1ccccc1)*
# B1: Thermoplasma acidophilum 20S proteasome α subunit, wild type (natural protein, T. acidophilum)
# chain: MQQGQMAYDRAITVFSPDGRLFQVEYAREAVKKGSTALGMKFANGVLLISDKKVRSRLIEQNSIEKIQLIDDYVAAVTSGLVADARVLVDFARISAQQEKVTYGSLVNIENLVKRVADQMQQYTQYGGVRPYGVSLIFAGIDQIGPRLFDCDPAGTINEYKATAIGSGKDAVVSFLEREYKENLPEKEAVTLGIKALKSSLEEGEELKAPEIASITVGNKYRIYDQEEVKKFL
# notes: proteasome subunit alpha of the Thermoplasma acidophilum 20S proteasome; Single subunit of m1, written for the subunit-subunit rows of the structures; also called T20S α subunit; source: part of the purified T20S (purified as described [42], via 8XHis tags on the C-terminus of β subunit)
# B2: Thermoplasma acidophilum 20S proteasome α subunit with the L81Y mutation (natural protein, T. acidophilum)
# chain: MQQGQMAYDRAITVFSPDGRLFQVEYAREAVKKGSTALGMKFANGVLLISDKKVRSRLIEQNSIEKIQLIDDYVAAVTSGYVADARVLVDFARISAQQEKVTYGSLVNIENLVKRVADQMQQYTQYGGVRPYGVSLIFAGIDQIGPRLFDCDPAGTINEYKATAIGSGKDAVVSFLEREYKENLPEKEAVTLGIKALKSSLEEGEELKAPEIASITVGNKYRIYDQEEVKKFL
# notes: proteasome subunit alpha of the Thermoplasma acidophilum 20S proteasome, L81Y; Subunit of the T20S-αL81Y proteasome whose cryo-EM structure is solved here; also called T20S-αL81Y α subunit; source: part of the purified T20S-αL81Y (overlapping PCR site-directed mutagenesis; purified via 8XHis tags on the C-terminus of β subunit)
# How the values were obtained:
# [1] = target: Thermoplasma acidophilum wild type 20S proteasome (T. acidophilum) (UniProt P25156)
# [2] = target: Mammalian 20S proteasome isolated from bovine liver (bovine (isolated from bovine liver), UniProt Q2YDE4 1-246; Q3T0Y5 1-234; Q3ZCK9 1-261; Q3ZBG0 1-248; Q5E987 1-241; Q3T0X5 …); experiment: cell-based or functional assay
# [3] = target: Thermoplasma acidophilum wild type 20S proteasome (T. acidophilum) (UniProt P25156); remark: listed apart in the source
# [4] = target: B1; experiment: cryo-EM structure; 0.5 mg/mL WT T20S in 50mM Tris pH 7.4, 150mM NaCl; Titan Krios; homogeneous refinement with D7 symmetry; closed gate; conditions: both partners purified
# [5] = target: the molecule itself; experiment: cryo-EM structure; 0.5 mg/mL T20S-αL81Y in 50mM Tris pH 7.4, 150mM NaCl; Titan Krios; homogeneous refinement with D7 symmetry; partially open gate
# [6] = target: B2; experiment: as above; conditions: both partners purified
# [7] = target: the molecule itself; experiment: cryo-EM structure; 0.5 mg/mL WT T20S in 50mM Tris pH 7.4, 150mM NaCl; Titan Krios; homogeneous refinement with D7 symmetry; closed gate
molecule,measurement,setting,value
"N-acetylated PAN C-terminus peptide, three residues (Ac-LYR)","LFP hydrolysis (rfu/min) by 7nM WT T20S with N-terminally acetylated peptide (200 μM), relative to DMSO; gate opening",[1],2 fold
"Ac-LDVLYR [N-acetylated PAN C-terminus peptide, six residues]","LFP hydrolysis (rfu/min) by 7nM WT T20S with N-terminally acetylated peptide (200 μM), relative to DMSO; gate opening",[1],> 10 fold
"Cbz-Tyr-Ala [Z-Tyr-Ala (carboxybenzyl-tyrosine-alanine), HbYX-like dipeptide mimetic]","nLPnLD-AMC hydrolysis by mammalian 20S (0.5 nM), dose response of ZYA, normalized to DMSO: activation at saturation",[2],~50 fold
same,"LFP hydrolysis (rfu/min) by 7nM WT T20S with ZYA (2.5mM), normalized to DMSO; gate opening",[3],13 fold
"Thermoplasma acidophilum 20S proteasome β subunit (natural protein, T. acidophilum, UniProt P28061 9-211, looked up, proteasome subunit beta of the Thermoplasma acidophilum 20S proteasome; Single subunit of m1, written for the subunit-subunit rows of the structures; also called T20S β subunit; source: part of the purified T20S (purified as described [42], via 8XHis tags on the C-terminus of β subunit)) TTTVGITLKDAVIMATERRVTMENFIMHKNGKKLFQIDTYTGMTIAGLVGDAQVLVRYMKAELELYRLQRRVNMPIEAVATLLSNMLNQVKYMPYMVQLLVGGIDTAPHVFSIDAAGGSVEDIYASTGSGSPFVYGVLESQYSEKMTVDEGVDLVIRAISAAKQRDSASGGMIDVAVITRKDGYVQLPTDQIESRIRKLGLIL",binding result,[4],binds
same,binding result,[5],binds
same,binding result,[6],binds
B1,binding result,[7],binds
B2,binding result,[5],binds
